From patent US9523084B2, “Phosphodeoxyribosyl transferase mutant enzymes and uses thereof” (Centre National De La Recherche Scientifique, priority 2012, dated 2016)

Columns and labels:
[1] = target: T1, Lactobacillus leichmannii nucleoside deoxyribosyltransferase (NDT, SEQ ID NO:1) variant PDTT2, R13 Q91 G92 T93 S123 (F13R/E91Q/D92G/V93T/N123S), SEQ ID NO:10 (Lactobacillus leichmannii, UniProt Q9R5V5, D92G/E91Q/F13R/N123S/V93T); assay: Kinetic parameters of PDT variants with deoxycytidine 5'-mono, -di and -triphosphate as donors and adenine as acceptor; type: biochemical; conditions: adenine acceptor
T1 construct: made in house; host or cells: E. coli BLi5 (pET24a NDT plasmid)
T1 sequence (Q9R5V5 2-157 F13R/E91Q/D92G/V93T/N123S): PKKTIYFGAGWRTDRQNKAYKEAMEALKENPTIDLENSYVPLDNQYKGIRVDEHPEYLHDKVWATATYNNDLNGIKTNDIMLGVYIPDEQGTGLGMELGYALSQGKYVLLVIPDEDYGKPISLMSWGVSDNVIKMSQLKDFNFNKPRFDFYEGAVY
Description: (§1) The standard assay (“first protocol for enzyme assay”) for the different NDTs consisted of 5-15 μg of NDT in 50 mM MES buffer pH 6.0, dNxP (dNMP, or dNDP or dNTP) 3 mM and a base 1 mM in a total volume of 50 μL. Assays were incubated for 60 min at 37° C. The products of the reactions were analyzed each 7 min by Rapid resolution high performance liquid chromatography using a reverse-phase column (ZORBAX Eclipse XDB-C18 2.1*50 mm 1.8 μM) with a flow rate of 0.25 ml/min and a linear gradient of 1-12% CH3CN (2-25% CH3CN or 1-90% CH3CN) in 20 mM triethylammonium acetate, pH 7.5, buffer for 7 min. The low resolution mass spectra of the newly synthesized deoxyribonucleotides were obtained on an Agilent 1200 series LC/MS 6120 quadrupole system using an atmospheric electrospray ionization system.
(§2) This hypothesis was confirmed by monitoring the specific activity, in the presence of dCDP or dCTP as donor and adenine as acceptor (see table 2 above). The kinetic parameters were determined for the best variants with dCMP, dCDP and dCTP as substrates, at a concentration of A being fixed (see table 3 below).

[2] = target: T2, Lactobacillus leichmannii nucleoside deoxyribosyltransferase (NDT, SEQ ID NO:1) variant PDTT1, R13 G92 T93 S123 K157 (F13R/D92G/V93T/N123S/Y157K), SEQ ID NO:9 (Lactobacillus leichmannii, UniProt Q9R5V5, D92G/F13R/N123S/V93T/Y157K); assay: as above; type: biochemical; conditions: adenine acceptor
T2 construct: homohexamer (108 kDa)
T2 sequence (Q9R5V5 1-157 F13R/D92G/V93T/N123S/Y157K): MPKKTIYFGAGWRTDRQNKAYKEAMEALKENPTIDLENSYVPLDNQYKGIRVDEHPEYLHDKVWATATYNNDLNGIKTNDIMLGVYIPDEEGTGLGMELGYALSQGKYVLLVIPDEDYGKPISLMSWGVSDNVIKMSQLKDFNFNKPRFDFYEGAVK
Description: as §1, §2

[3] = substrate: Nc1ccn([C@H]2C[C@H](O)[C@@H](COP(=O)(O)OP(=O)(O)OP(=O)(O)O)O2)c(=O)n1; assay: as above; type: biochemical; conditions: other: PDTT2; deoxyribose triphosphate transferase; 37.0 °C
Description: as §1, §2

[4] = substrate: Nc1ccn([C@H]2C[C@H](O)[C@@H](COP(=O)(O)O)O2)c(=O)n1; assay: as above; type: biochemical; conditions: 37.0 °C; for Km: adenine as acceptor, fixed
Description: as §1, §2

[5] = substrate: Nc1ccn([C@H]2C[C@H](O)[C@@H](COP(=O)(O)O)O2)c(=O)n1; assay: as above; type: biochemical, Lactobacillus leichmannii; conditions: 37.0 °C; for Km: adenine as acceptor, fixed
Description: as §1, §2

[6] = substrate: Nc1ncnc2c1ncn2[C@H]1C[C@H](O)[C@@H](COP(=O)(O)OP(=O)(O)OP(=O)(O)O)O1; assay: Spectrophotometric assay coupled to xanthine oxidase, dATP + C ⇄ dCTP + A; type: biochemical, Lactobacillus leichmannii; conditions: other: PDTT5, 1 mM cytosine, 50 mM MES pH6.0, 37° C., pH 6.0
Description: (§3) Further, the cinetic parameters of these mutant enzymes were analysed, using a specific spectrophotometric assay. Briefly, the assay consists in measuring the formation of the final product (2,8 dihydroxyadenine) of the reaction:
(§4) Briefly, the assay was performed using the coupling of two enzymes: the variant (PDTT2, PDTT4, PDTT5, PDTT6, or PDTT7) to be tested and xanthine oxidase (obtained from Roche). The reaction mixture contained varying concentrations of dATP, 1 mM cytosine in a 50 mM MES buffer pH6.0 at 37° C. The reaction was initiated by adding 30 units of the purified variant to be tested and xanthine oxidase (Roche). The released adenine was then oxidized in 2,8-dihydroxyadenine which absorbs at 301 nm. The formation (i.e. concentration) of 2,8 dihydroxyadenine was measured by spectrophotometry.

[7] = Spectrophotometric assay coupled to xanthine oxidase (2,8-dihydroxyadenine at 301 nm); type: biochemical; conditions: dATP + C ⇄ dCTP + A; 1 mM cytosine, 50 mM MES pH6.0, 37° C.
Description: as §3, §4

[8] = Catalytic activity of PDTT2 to PDTT7, dATP formed (HPLC); type: biochemical; conditions: dCTP + A ⇄ dATP + C; 2 mM dCTP, 1 mM Adenine, 37° C., MES 50 mM pH6.0
Description: In specific cases, an alternative protocol was used to perform the enzyme assay. In this second protocol, the dNxP (dNMP, or dNDP or dNTP) concentration was of only 2 mM, instead of 3 mM. All of the other conditions were identical to those of the first protocol.
The catalytic activity of the mutant enzymes PDTT2, PDTT3, PDTT3b, PDTT4, PDTT5, PDTT6, PDTT7 has been compared. Briefly, a sufficient amount of enzyme mutant necessary to obtain a linear reaction over a period of one hour at 37° C. has been mixed in 2 mM dCTP and 1 mM Adenine in a final volume of 50 μL of MES buffer 50 mM pH6.0. Assays were incubated for 60 min at 37° C. The products of the reactions were analyzed each 7 min by Rapid resolution high performance liquid chromatography using a reverse-phase column (ZORBAX Eclipse XDB-C18 2.1*50 mm […]) with a flow rate of 0.25 ml/min and a linear gradient of 1-12% CH3CN (2-25% CH3CN or 1-90% CH3CN) in 20 mM triethylammonium acetate, pH 7.5, buffer for 7 min.

[9] = substrate: Nc1ncnc2c1ncn2[C@H]1C[C@H](O)[C@@H](COP(=O)(O)OP(=O)(O)OP(=O)(O)O)O1; assay: Spectrophotometric assay coupled to xanthine oxidase, dATP + C ⇄ dCTP + A; type: biochemical; conditions: other: PDTT2, 1 mM cytosine, 50 mM MES pH6.0, 37° C., pH 6.0
Description: as §3, §4

Nc1ccn([C@H]2C[C@H](O)[C@@H](COP(=O)(O)O)O2)c(=O)n1 [dCMP]
kcat ([1]; PDTT2, second line of the table): 0.1 s⁻¹ | kcat ([1]; PDTT2, third line of the table): 1.3 s⁻¹ | kcat ([2]; PDTT1, second line of the table): 0.08 s⁻¹ | kcat ([2]; PDTT1, third line of the table): 0.5 s⁻¹

B1: Lactobacillus leichmannii nucleoside deoxyribosyltransferase (NDT, SEQ ID NO:1) variant PDTT2, R13 Q91 G92 T93 S123 (F13R/E91Q/D92G/V93T/N123S), SEQ ID NO:10 … (protein)
chain: PKKTIYFGAGWRTDRQNKAYKEAMEALKENPTIDLENSYVPLDNQYKGIRVDEHPEYLHDKVWATATYNNDLNGIKTNDIMLGVYIPDEQGTGLGMELGYALSQGKYVLLVIPDEDYGKPISLMSWGVSDNVIKMSQLKDFNFNKPRFDFYEGAVY
notes: made in house; host or cells: E. coli BLi5 (pET24a NDT plasmid)
Km [3]: 2 mM | kcat/Km [3]: 668 s⁻¹ M⁻¹ | kcat ([4]; other: PDTT2, first line, adenine acceptor, molecular mass of 108 kDa): 0.9 s⁻¹ | Km ([4]; other: PDTT2, first line): 6 mM | Km ([4]; other: PDTT2, second line of the table): 8.7 mM | Km ([4]; other: PDTT2, third line of the table): 2 mM

B2: Lactobacillus leichmannii nucleoside deoxyribosyltransferase (NDT, SEQ ID NO:1) variant PDTT1, R13 G92 T93 S123 K157 (F13R/D92G/V93T/N123S/Y157K), SEQ ID NO:9 … (protein)
chain: MPKKTIYFGAGWRTDRQNKAYKEAMEALKENPTIDLENSYVPLDNQYKGIRVDEHPEYLHDKVWATATYNNDLNGIKTNDIMLGVYIPDEEGTGLGMELGYALSQGKYVLLVIPDEDYGKPISLMSWGVSDNVIKMSQLKDFNFNKPRFDFYEGAVK
notes: homohexamer (108 kDa)
kcat ([5]; other: PDTT1, first line, adenine acceptor, molecular mass of 108 kDa): 0.46 s⁻¹ | Km ([5]; other: PDTT1, first line): 4.1 mM | Km ([5]; other: PDTT1, second line of the table): 8.9 mM | Km ([5]; other: PDTT1, third line of the table): 5.5 mM

B3: Lactobacillus leichmannii nucleoside deoxyribosyltransferase (NDT, SEQ ID NO:1) variant PDTT5, R13 Q91 G92 P93 S123 R157 (F13R/E91Q/D92G/V93P/N123S/Y157R), SEQ … (protein)
chain: MPKKTIYFGAGWRTDRQNKAYKEAMEALKENPTIDLENSYVPLDNQYKGIRVDEHPEYLHDKVWATATYNNDLNGIKTNDIMLGVYIPDEQGPGLGMELGYALSQGKYVLLVIPDEDYGKPISLMSWGVSDNVIKMSQLKDFNFNKPRFDFYEGAVR
notes: xanthine oxidase is coupling enzyme only
Km [6]: 0.2 mM | kcat [6]: 8.78 s⁻¹ | kcat/Km [6]: 42800 M⁻¹ s⁻¹

B4: PDTT6: PDTT4 mutant with Arginine at position 157, SEQ ID NO:43 (protein)
chain: MPKKTIYFGAGWRTDRQNKAYKEAMEALKENPTIDLENSYVPLDNQYKGIRVDEHPEYLHDKVWATATYNNDLNGIKTNDIMLGVYIPDEQGSGLGMELGYALSQGKYVLLVIPDEDYGKPISLMSWGVSDNVIKMSQLKDFNFNKPRFDFYEGAVR
modifications: amino acid sequence of PDTT6 (G92/S123/R13/S93/R157/Q91)
Km [7]: 0.5 mM | kcat [7]: 10 s⁻¹ | Catalytic activity (nmol of dATP formed/min/mg of enzyme protein) [8]: 18.6 nmol of dATP formed/min/mg of enzyme protein

B5: PDTT7: PDTT3b mutant with Arginine at position 157, SEQ ID NO:42 (protein)
chain: MPKKTIYFGAGWRTDRQNKAYKEAMEALKENPTIDLENSYVPLDNQYKGIRVDEHPEYLHDKVWATATYNNDLNGIKTNDIMLGVYIPDEQGGGLGMELGYALSQGKYVLLVIPDEDYGKPISLMSWGVSDNVIKMSQLKDFNFNKPRFDFYEGAVR
modifications: amino acid sequence of PDTT7 (G92/S123/R13/G93/R157/Q91)
Km [7]: 2.6 mM | kcat [7]: 10 s⁻¹ | Catalytic activity (nmol of dATP formed/min/mg of enzyme protein) [8]: 17.9 nmol of dATP formed/min/mg of enzyme protein

B6: Lactobacillus leichmannii nucleoside deoxyribosyltransferase (NDT, SEQ ID NO:1) variant PDTT2, R13 Q91 G92 T93 S123 (F13R/E91Q/D92G/V93T/N123S), SEQ ID NO:10 … (protein)
chain: MPKKTIYFGAGWRTDRQNKAYKEAMEALKENPTIDLENSYVPLDNQYKGIRVDEHPEYLHDKVWATATYNNDLNGIKTNDIMLGVYIPDEQGTGLGMELGYALSQGKYVLLVIPDEDYGKPISLMSWGVSDNVIKMSQLKDFNFNKPRFDFYEGAVY
notes: as for B1
Km [9]: 6.1 mM | kcat [9]: 12.6 s⁻¹ | kcat/Km [9]: 2000 M⁻¹ s⁻¹
